Assay results: PMC4520091

Key:
yPrp3CTF R322A [1] = test: EMSA; details: tRNA competitor; apparent Kd; EMSA: 20 mM Tris-HCl pH 7.0, 150 mM NaCl, 2 mM DTT, 0.5 ug/ul tRNA, 4 C; titrations: 20 mM HEPES pH 6.8, 150 mM NaCl, 0.33 ug/ul tRNA; human FL/N/C: 10 mM Tris …
yPrp3CTF [2] = test: EMSA; details: tRNA competitor, EMSA: 20 mM Tris-HCl pH 7.0, 150 mM NaCl, 2 mM DTT, 0.5 ug/ul tRNA, 4 C, titrations: 20 mM HEPES pH 6.8, 150 mM NaCl, 0.33 ug/ul tRNA, human FL/N/C: 10 mM Tris …
yPrp3DUF1115 [3] = test: EMSA; details: tRNA competitor; apparent Kd; EMSA: 20 mM Tris-HCl pH 7.0, 150 mM NaCl, 2 mM DTT, 0.5 ug/ul tRNA, 4 C; titrations: 20 mM HEPES pH 6.8, 150 mM NaCl, 0.33 ug/ul tRNA; human FL/N/C: 10 mM Tris …
yPrp3CTF R304A [4] = test: EMSA; details: tRNA competitor; apparent Kd; EMSA: 20 mM Tris-HCl pH 7.0, 150 mM NaCl, 2 mM DTT, 0.5 ug/ul tRNA, 4 C; titrations: 20 mM HEPES pH 6.8, 150 mM NaCl, 0.33 ug/ul tRNA; human FL/N/C: 10 mM Tris …
yPrp3CTF R322A [5] = test: ITC; details: 20 C, GAGA-fused RNA; EMSA: 20 mM Tris-HCl pH 7.0, 150 mM NaCl, 2 mM DTT, 0.5 ug/ul tRNA, 4 C; titrations: 20 mM HEPES pH 6.8, 150 mM NaCl, 0.33 ug/ul tRNA; human FL/N/C: 10 mM Tris …
yPrp3CTF [6] = test: ITC; details: 20 C, GAGA-fused RNA; EMSA: 20 mM Tris-HCl pH 7.0, 150 mM NaCl, 2 mM DTT, 0.5 ug/ul tRNA, 4 C; titrations: 20 mM HEPES pH 6.8, 150 mM NaCl, 0.33 ug/ul tRNA; human FL/N/C: 10 mM Tris …
yPrp3DUF1115 [7] = test: ITC; details: EMSA: 20 mM Tris-HCl pH 7.0, 150 mM NaCl, 2 mM DTT, 0.5 ug/ul tRNA, 4 C; titrations: 20 mM HEPES pH 6.8, 150 mM NaCl, 0.33 ug/ul tRNA; human FL/N/C: 10 mM Tris …
yPrp3CTF R304A [8] = test: ITC; details: 20 C, GAGA-fused RNA; EMSA: 20 mM Tris-HCl pH 7.0, 150 mM NaCl, 2 mM DTT, 0.5 ug/ul tRNA, 4 C; titrations: 20 mM HEPES pH 6.8, 150 mM NaCl, 0.33 ug/ul tRNA; human FL/N/C: 10 mM Tris …

Substance | Kd (yPrp3CTF R322A [1]) [nM] | Kd (yPrp3CTF [2]; apparent Kd) [nM] | Kd (yPrp3DUF1115 [3]) [nM] | Kd (yPrp3CTF R304A [4]) [nM] | Kd (yPrp3CTF R322A [5]) [nM] | Kd (yPrp3CTF [6]) [nM] | Kd (yPrp3DUF1115 [7]) [nM] | Kd (yPrp3CTF R304A [8]) [nM] | binding signal (fold lower affinity than wt) (yPrp3CTF [2])
yU4/U6 stem II+13nt | 2630 | 920 | 1830 | 1580 | 400 | 110 | 380 | 260 | 
yU4/U6 stem II+13nt U4 C12G |  |  |  |  |  |  |  |  | 2
yU4/U6 stem II+13nt U6 C69G |  |  |  |  |  |  |  |  | 2
